From doi:10.1101/2024.06.17.599268 (bioRxiv, 2024)

B1: Rab8a_(1-176) (natural protein)
chain: MAKTYDYLFKLLLIGDSGVGKTCVLFRFSEDAFNSTFISTIGIDFKIRTIELDGKRIKLQIWDTAGQERFRTITTAYYRGAMGIMLVYDITNEKSFDNIRNWIRNIEEHASADVEKMILGNKCDVNDKRQVSKERGEKLALDYGIKFMETSAKANINVENAFFTLARDIKAKMDKK
B3: Mical1 bMERB domain (residues 918-1067) (domain or fragment)
chain: KEEEMKRFCKAQTIQRRLNEIEAALRELEAEGVKLELALRRQSSSPEQQKKLWVGQLLQLVDKKNSLVAEEAELMITVQELNLEEKQWQLDQELRGYMNREENLKTAADRQAEDQVLRKLVDLVNQRDALIRFQEERRLSELALGTGAQG

Legend:
[1] = molecular target: T1, bMERB_(V978A_V985A) (human, UniProt Q8TDZ2 918-1067, V978A | V985A); assay: ITC
T1 sequence: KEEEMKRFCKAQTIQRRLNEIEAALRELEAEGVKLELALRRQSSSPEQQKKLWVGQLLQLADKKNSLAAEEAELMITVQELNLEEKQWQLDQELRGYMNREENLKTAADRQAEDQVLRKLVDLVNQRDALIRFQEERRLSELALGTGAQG

[2] = molecular target: T2, bMERB_(M992A_I993A) (human, UniProt Q8TDZ2 918-1067, M992A | I993A); assay: ITC
T2 sequence: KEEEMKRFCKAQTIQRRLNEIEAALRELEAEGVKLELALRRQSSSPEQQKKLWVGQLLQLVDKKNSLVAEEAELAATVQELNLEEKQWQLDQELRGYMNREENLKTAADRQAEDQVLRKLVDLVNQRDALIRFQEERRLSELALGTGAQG

[3] = molecular target: B3; assay: ITC
[4] = molecular target: T3, bMERB_(L1047A_F1050A) (human, UniProt Q8TDZ2 918-1067, L1047A | F1050A); assay: ITC
T3 sequence: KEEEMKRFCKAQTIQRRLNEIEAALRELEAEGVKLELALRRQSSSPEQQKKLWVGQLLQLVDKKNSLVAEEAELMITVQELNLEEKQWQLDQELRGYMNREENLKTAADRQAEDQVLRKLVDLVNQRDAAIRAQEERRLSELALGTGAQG

[5] = molecular target: T4, full-length Mical1 (human, UniProt Q8TDZ2 1-1067); assay: ITC
T4 sequence: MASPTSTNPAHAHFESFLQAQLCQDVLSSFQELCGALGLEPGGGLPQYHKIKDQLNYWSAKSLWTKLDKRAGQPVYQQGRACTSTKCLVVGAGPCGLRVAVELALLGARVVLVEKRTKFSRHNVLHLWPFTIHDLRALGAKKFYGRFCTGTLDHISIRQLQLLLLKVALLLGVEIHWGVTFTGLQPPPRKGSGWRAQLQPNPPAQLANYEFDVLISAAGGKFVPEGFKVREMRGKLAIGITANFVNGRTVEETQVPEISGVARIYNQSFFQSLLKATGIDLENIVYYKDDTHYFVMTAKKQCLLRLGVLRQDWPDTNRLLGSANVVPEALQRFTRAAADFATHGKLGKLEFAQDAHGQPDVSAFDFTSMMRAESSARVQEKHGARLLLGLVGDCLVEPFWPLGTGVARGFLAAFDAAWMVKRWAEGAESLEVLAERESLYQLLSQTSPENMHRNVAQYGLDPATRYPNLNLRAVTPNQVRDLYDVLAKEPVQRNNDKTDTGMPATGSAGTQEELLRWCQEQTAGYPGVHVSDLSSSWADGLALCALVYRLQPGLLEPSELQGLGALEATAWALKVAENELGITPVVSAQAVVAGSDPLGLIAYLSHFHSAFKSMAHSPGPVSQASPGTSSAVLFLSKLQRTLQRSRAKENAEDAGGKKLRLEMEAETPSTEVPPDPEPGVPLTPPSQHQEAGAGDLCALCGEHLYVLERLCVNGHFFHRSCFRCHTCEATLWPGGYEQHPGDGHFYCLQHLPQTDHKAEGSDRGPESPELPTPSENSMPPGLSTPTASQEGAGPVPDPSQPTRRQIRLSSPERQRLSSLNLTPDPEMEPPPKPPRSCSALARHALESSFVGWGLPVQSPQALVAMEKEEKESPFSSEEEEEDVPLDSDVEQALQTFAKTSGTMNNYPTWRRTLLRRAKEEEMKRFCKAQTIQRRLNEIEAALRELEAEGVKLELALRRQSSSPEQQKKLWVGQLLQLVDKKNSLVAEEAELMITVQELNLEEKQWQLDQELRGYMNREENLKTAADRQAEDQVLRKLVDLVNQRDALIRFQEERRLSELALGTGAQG

[6] = molecular target: T5, Rab15_(1-176) (human, UniProt P59190 1-176); assay: ITC
T5 sequence: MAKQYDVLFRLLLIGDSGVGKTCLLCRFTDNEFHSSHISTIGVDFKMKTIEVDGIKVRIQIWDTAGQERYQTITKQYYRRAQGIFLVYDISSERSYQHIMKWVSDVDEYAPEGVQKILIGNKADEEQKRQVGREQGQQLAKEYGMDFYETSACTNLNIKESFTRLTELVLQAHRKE

[7] = molecular target: B1; assay: ITC
[8] = molecular target: T6, Rab10_(1-175) (human, UniProt P61026 1-175); assay: ITC
T6 sequence: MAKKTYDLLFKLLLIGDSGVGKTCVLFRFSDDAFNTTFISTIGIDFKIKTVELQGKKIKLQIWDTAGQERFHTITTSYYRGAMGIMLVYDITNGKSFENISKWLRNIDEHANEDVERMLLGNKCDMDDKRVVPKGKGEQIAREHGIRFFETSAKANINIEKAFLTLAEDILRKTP

[9] = molecular target: T7, Mical1 MO-CH-LIM (residues 1-781) (human, UniProt Q8TDZ2 1-781); assay: ITC
T7 sequence: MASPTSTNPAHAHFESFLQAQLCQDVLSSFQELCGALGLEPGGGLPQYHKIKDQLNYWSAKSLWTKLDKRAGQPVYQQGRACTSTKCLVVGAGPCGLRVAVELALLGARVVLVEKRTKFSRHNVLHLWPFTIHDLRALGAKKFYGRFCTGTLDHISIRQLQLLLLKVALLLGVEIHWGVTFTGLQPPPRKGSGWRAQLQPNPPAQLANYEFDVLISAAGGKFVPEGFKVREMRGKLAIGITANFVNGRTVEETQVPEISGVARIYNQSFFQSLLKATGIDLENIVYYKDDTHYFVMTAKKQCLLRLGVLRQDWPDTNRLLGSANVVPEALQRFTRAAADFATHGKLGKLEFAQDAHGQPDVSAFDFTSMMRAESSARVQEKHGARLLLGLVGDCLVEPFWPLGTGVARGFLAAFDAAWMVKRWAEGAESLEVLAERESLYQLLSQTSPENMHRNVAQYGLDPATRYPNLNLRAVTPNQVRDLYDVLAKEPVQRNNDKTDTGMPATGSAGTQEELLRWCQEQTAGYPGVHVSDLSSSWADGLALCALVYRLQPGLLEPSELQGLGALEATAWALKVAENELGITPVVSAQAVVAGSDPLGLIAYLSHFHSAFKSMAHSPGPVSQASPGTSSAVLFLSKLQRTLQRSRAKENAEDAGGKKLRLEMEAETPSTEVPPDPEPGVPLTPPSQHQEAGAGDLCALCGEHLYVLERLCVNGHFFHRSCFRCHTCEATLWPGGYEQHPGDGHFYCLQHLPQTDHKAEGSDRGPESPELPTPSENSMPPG

[10] = molecular target: T5, Rab15_(1-176); assay: SEC
[11] = molecular target: B1; assay: SEC
[12] = molecular target: T6, Rab10_(1-175); assay: SEC

B1
stoichiometry N [1]: 1 | fold decrease in N-terminal (Nt-RBS1) Rab binding against wild-type bMERB [2]: > 30 fold | stoichiometry N [3]: 2 | fold decrease in C-terminal (Ct-RBS2) Rab8 binding against wild-type bMERB [4]: > 20 fold | fold decrease in N-terminal (Nt-RBS1) Rab binding against wild-type bMERB [4]: 10 fold | stoichiometry N [5]: 2

B2: bMERB_(S960D) (domain or fragment)
chain: KEEEMKRFCKAQTIQRRLNEIEAALRELEAEGVKLELALRRQDSSPEQQKKLWVGQLLQLVDKKNSLVAEEAELMITVQELNLEEKQWQLDQELRGYMNREENLKTAADRQAEDQVLRKLVDLVNQRDALIRFQEERRLSELALGTGAQG
binding result [6]: binds | binding result [7]: binds | binding result [8]: binds | binding result [9]: binds

B3
binding result [10]: binds | binding result [11]: binds | binding result [12]: binds
